{
  "source": "patent US20160194357A1",
  "about": "“Novel NPR-B Agonists” (published 2016)",
  "key": {"[1]": {"target": "T1, natriuretic peptide receptor -A (Homo sapiens)", "T1 chain": "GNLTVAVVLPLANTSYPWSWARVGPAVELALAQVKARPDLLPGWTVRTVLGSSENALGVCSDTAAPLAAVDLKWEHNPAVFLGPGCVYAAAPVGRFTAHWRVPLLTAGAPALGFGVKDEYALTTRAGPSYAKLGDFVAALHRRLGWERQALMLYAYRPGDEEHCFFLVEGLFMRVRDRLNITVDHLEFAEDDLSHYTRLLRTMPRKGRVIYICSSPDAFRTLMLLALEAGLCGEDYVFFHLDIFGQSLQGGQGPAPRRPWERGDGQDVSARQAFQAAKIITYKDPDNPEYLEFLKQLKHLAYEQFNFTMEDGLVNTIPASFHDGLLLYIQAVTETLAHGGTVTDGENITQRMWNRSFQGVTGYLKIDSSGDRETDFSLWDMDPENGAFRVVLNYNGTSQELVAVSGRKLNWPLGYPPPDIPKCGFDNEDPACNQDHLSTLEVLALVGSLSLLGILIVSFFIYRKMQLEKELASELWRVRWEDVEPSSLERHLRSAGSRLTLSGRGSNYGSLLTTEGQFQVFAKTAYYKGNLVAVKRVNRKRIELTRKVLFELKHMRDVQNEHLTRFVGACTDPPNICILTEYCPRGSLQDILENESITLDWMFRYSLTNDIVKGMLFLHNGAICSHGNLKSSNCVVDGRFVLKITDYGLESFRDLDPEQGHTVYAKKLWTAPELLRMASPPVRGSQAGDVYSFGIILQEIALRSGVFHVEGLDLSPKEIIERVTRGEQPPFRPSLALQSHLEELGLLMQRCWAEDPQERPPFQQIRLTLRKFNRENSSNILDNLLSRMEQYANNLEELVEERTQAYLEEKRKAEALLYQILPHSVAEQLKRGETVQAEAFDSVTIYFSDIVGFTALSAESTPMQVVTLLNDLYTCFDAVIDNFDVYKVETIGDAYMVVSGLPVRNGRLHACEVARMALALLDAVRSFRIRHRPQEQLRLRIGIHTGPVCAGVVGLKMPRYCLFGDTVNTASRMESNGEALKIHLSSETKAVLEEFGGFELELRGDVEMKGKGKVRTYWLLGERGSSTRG", "experiment": "cell-based or functional assay"}, "[2]": {"target": "T2, natriuretic peptide receptor -B (human)", "T2 chain": "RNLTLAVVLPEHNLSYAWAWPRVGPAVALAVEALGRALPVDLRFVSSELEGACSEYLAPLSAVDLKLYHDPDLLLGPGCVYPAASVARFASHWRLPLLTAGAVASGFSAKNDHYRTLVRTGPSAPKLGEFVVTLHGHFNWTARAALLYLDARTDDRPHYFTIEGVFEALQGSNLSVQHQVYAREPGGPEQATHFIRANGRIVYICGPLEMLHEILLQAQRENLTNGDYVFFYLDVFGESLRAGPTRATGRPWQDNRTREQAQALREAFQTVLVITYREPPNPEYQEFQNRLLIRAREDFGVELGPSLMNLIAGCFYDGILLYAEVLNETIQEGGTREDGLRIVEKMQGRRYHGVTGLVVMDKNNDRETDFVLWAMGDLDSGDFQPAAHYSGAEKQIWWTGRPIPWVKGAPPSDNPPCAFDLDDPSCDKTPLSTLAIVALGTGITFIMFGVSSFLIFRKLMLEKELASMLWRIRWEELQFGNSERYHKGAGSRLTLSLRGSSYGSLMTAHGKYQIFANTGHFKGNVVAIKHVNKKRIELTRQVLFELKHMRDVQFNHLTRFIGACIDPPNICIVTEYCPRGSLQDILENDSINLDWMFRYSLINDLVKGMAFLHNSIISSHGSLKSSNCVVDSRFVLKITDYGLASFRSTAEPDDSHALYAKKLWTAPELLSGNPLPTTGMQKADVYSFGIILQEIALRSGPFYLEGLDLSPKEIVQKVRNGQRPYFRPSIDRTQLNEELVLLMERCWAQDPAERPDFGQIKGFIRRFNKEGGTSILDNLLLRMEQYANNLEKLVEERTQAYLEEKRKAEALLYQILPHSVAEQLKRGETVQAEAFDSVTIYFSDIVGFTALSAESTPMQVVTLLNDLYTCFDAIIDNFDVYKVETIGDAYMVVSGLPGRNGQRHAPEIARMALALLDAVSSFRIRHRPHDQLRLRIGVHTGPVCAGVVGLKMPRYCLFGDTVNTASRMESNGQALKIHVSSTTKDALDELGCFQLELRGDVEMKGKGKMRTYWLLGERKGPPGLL", "experiment": "cell-based or functional assay"}},
  "note": "Bridges are numbered along the chain shown (N, C = ends). Where no end group is shown, it is not given here.",
  "data": [
    {"binder": "MCHFGGRMDRISCYR", "note": "[mini-ANP]", "values": [
      {"measurement": "cyclic GMP production in NPR-A transfected 293-T cells, EC50", "setting": "[1]", "result": 1540, "unit": "nM"},
      {"measurement": "cyclic GMP production in GTM-3 cells, EC50", "setting": "[2]", "result": "> 45000", "unit": "nM"},
      {"measurement": "cyclic GMP production in GTM-3 cells, Emax (maximum activation)", "setting": "[2]", "result": 0, "unit": "%"}
    ]},
    {"binder": "SLRRSSCFGGRMDRIGAQSGLGCNSFRY (ligand, disulfide 7-23)", "note": "[atrial natriuretic peptide]", "values": [
      {"measurement": "cyclic GMP production in GTM-3 cells, EC50", "setting": "[2]", "result": 1630, "unit": "nM"},
      {"measurement": "cyclic GMP production in GTM-3 cells, Emax (maximum activation)", "setting": "[2]", "result": 15, "unit": "%"}
    ]},
    {"binder": "GLSKGCFGLKLDRIGSMSGLGC (ligand, disulfide 6-22)", "note": "[C-type natriuretic peptide]", "values": [
      {"measurement": "cyclic GMP production in NPR-A transfected 293-T cells, EC50", "setting": "[1]", "result": 1600, "unit": "nM"},
      {"measurement": "cyclic GMP production in GTM-3 cells, EC50", "setting": "[2]", "result": 38.8, "unit": "nM"},
      {"measurement": "cyclic GMP production in GTM-3 cells, Emax (maximum activation)", "setting": "[2]", "result": 100, "unit": "%"}
    ]}
  ]
}
